Tests used:
[1] = biological target: SARS-CoV-2 Omicron BA.1 (B.1.1.529) RBD (SARS-CoV-2 Omicron BA.1 (B.1.1.529), strain)
[2] = biological target: SARS-CoV-2 Gamma (P.1) S1 (SARS-CoV-2 Gamma (P.1), strain)
[3] = biological target: SARS-CoV-2 Delta (B.1.617.2) S1 (SARS-CoV-2 Delta (B.1.617.2), strain)
[4] = biological target: SARS-CoV-2 Kappa (B.1.617.1) spike ECD (SARS-CoV-2 Kappa (B.1.617.1), strain)
[5] = biological target: SARS-CoV-2 Beta (B.1.351) S1 (SARS-CoV-2 Beta (B.1.351), strain)
[6] = biological target: SARS-CoV-2 wildtype S1 (SARS-CoV-2 wildtype (Wuhan), UniProt P0DTC2)
[7] = biological target: SARS-CoV-2 Lambda (C.37) RBD (SARS-CoV-2 Lambda (C.37), strain)

Measured: binding result

B1: YB12-269 (antibody, V domains shown)
VH: EVQLVESGGALVRPGGSLRVSCAASGITVNFNYMTWVRQGPGKGLEWVASIYPGGSTFYADSVKGRFTISRDNSKNTLYLQMTSVRDEDTALYYCARDEGPGMDVWGQGTTVTVSS
VL: QSVLTQPPSVSGAPGQRVTISCTGYSSNIEAGSDVHWYQQPPGTAPKLLIYNNNNRPSGVPDRFSGSKSGTSASLAITGLQPGDEGDYYCQSYDSRLSGYVFGTGTKVTVL
binds: all assays above

B2: YB13-217 (antibody, V domains shown)
V domain 1: QVQLVESGGGVVQPGKSLRLSCTASGFTFSSHSMHWVRQAPGKGLDWVAVISFDGTKNYFADSLKGRFSVSRDNSRNTLYLQMNSLRVEDTAVYYCAREEGGSRMYHYYYGMDVWGQGTTVTVSS
V domain 2: QSVLTQPPSASGTPGQRVTISCSGSSSNIGTNTVNWYQQLPGTAPKLLIYTNNQRPSGVPDRFSGSKSGTSASLAIGGLQSEDEADYYCAAWDDSVSSYVFGTGTQVTAL
binds: all assays above

B3: YB9-112 (antibody, V domains shown)
VH: EVRLVESGGGLIQPGGSLRLSCAASGLIVSSNYMTWVRQAPGKGLEWVSVIYSGGSTFYADSVKGRFTISRDNSKNTLFLQMSSLRAEDTAIYYCARDLDYYGMDVWGQGTTVTVSS
VL: DIQLTQSPSFLSASVGDRVTITCRASQGVASYLAWYQQKPGKAPKLLIYAASTLQSGVPSRFSGSGSGTEFTLTISSLQPEDFATYYCQHLNSYPPITFGQGTRLEIK
not listed: [1]
binds: all other assays above

B4: YB12-195 (antibody, V domains shown)
VH: EVQLVESGGGLIQPGGSLRLSCAASGFIVSSNYMNWVRQAPGKGLEWVSVIYSGGSTFYADSVKGRFTISRDNSKNTLYLQMNSLRAEDTAVYYCARDLQRDGMDVWGQGTTVTVSS
VL: SYVLTQPPSVSVAPGKTARITCGGNNIGSKNVHWYQQKPGQAPVLVIYYDSDRPSGIPERFSGSNSGNTATLTVSRVEAGDEADYYCQLWDSSSDHVVFGGGTKLTVL
not listed: [1] | [5]
binds: all other assays above

B5: YB13-291 (antibody, V domains shown)
V domain 1: QITLKESGPTLVKPTQTLTLTCTFSGFSLNTAGVAVGWIRQPPGKAREWLALIYWDDDQRYSPSLESRLTITKDTSKNLVVLTMTNMDPVDTATYYCAHPRYFSDNSAYYWIWGQGTMVTVSS
V domain 2: SYDLTQPPSVSVSPGQTATISCSGDALPKQYVYWYQQKPGQAPVLVIYKDSERPSGIPERFSGSNSGTTVTLTISGVQAEDEAEYYCQSADSSGFYVFGSGTQVTVL
not listed: [1]
binds: all other assays above

B6: YB12-187 (antibody, V domains shown)
VH: EVQLVESGGGLVKPGGSLRLSCAASGFIFSTYSMNWVRQAPGKGLEWVSSISSFSTYIYYADSVKGRFTISRDNAKNSLYLQMNSLRAEDTAVYYCASGQMYSGSYPSGDYFDYWGQGTLVTVSS
VL: LSVLTQPPSVSGAPGQRVTISCTGSSSNIGADYDVHWYQQLPGTAPKLLIYGNTNRPSGVPDRFSGSKSGTSASLAITGLQAEDEAHYYCQSYDTSLSGVVFGGGTKLTVL
binds: all assays above

B7: YB12-202 (antibody, V domains shown)
VH: EVQLVQSGAEVKKPGESLKISCKGSGYSFISYWIVWVRQMPGKGLEWMGIIYPGDSDTRYSPSFHGQVTISADKSFSTAYLQWSSLKASDTAMYYCATTPHLYGGADYWGQGTLVTVSS
VL: not shown
binds: all assays above

B8: YB12-267 (antibody, V domains shown)
VH: KVQLVESGGGLIQPGGSLRLSCAASGLTVSSNYMNWVRQAPGKGLEWVSLIFSGGSTYYADSVKGRFTISRDYSKNTLYLQMNSLRAEDTAVYYCARDLMEVGGMDVWGQGTTVTVSS
VL: QSVLTQPPSASGTPGQRVTISCSGSSSYIGSIYWYQQLPGAAPKLLVFSDHKRPSGVPDRFSGSKSGTSASLAISGLQSEDEAGYYCATWDDSLNGYVFGTGTKVTVL
binds: all assays above

B9: YB13-275 (antibody, V domains shown)
V domain 1: QITLKESGPRLVKPTQTLTLTCTFSGFSLATAGMSVGWIRQPPGKALEWLALIYWDDDDRYSPSLKSRLTITKDTSRNQVVLTMTNMDPVDTATYYCIHPRFYSDPSGYYFIWGQGTMVTVSS
V domain 2: SYELTQPPSVSVSPGQTARITCSGDALAKQYAYWYQQKPGQAPVQVMYKDGERPSGIPERFSGSKSGTTVTLTISAVQAEDEADYFCQSADNSGFYVFGTGTQVTVL
not listed: [1]
binds: all other assays above

B10: YB12-203 (antibody, V domains shown)
VH: QIQLQQSGPGLVEPSQTLSLTCAISGDSVSSISAAWNWIRQSPSRGLEWLGRTYYRSKWYNDYAVSVKSRITINPDTSKNQFSLHLNSVTPEDTAVYYCARDHLRWDIVATSLEAFDIWGQGTMVTVSS
VL: DIVMTQSPDSLAVSLGERATINCKSSQSVLFSSNNKNSLAWYQQKPGQPPKLLIYWASTRESGVPDRFSGSGSGTDFTLTISSLQAEDVAVYYCQQYHSSLLYTFGQGTKLEIK
not listed: [1] | [2]
binds: all other assays above

B11: YB9-102 (antibody, V domains shown)
VH: EVQLLESGGGLVQPGGSLRLSCTASGFTFRYYAMTWVRQAPGKGLEWVSVIIGSGGDTYYADSVKGRFTISRDNSKNTLYLQMDSLRAEDTAVYYCATGELELGTCYFDYWGQGTLVTVSS
VL: DIQMTQSPSSVSASVGDRVTITCRASQGISSWLAWYQQKPGEAPKLLISAASSLQSGVPSRFSGSGSETDFTLTISSVQPEDFATYYCQQANSFPQAFGQGTKVEIK
binds: all assays above

B12: YB13-216 (antibody, V domains shown)
VH: QVQLVESGGGVVQPGSSLRISCAASGFTFSSYGMHWVRQGPGKGLEWVAVIWDDGSGKHYAVSVKGRFTISRDNSKNTLYLQMNSLRVEDTAVYYCARDEGTTVTFFDYWGQGTLVTVSS
VL: DIQMTQSPSSLSASVGDRITITCRASQSIRTYLNWYQQKPGKAPKLLIYTSSSLQSGVPSRFSGSGSGTDFTLTISSLQPEDFATYFCQQSYSTPPWTFGQGTKVEIK
binds: all assays above

B13: YB13-209 (antibody, V domains shown)
VH: EVQLVESGGGLVKPGGSLKLSCAASGFSFVNAWMSWVRQAPGKGLEWVGRIKDKIDGGTTDYAAPVKGRFSISRDDSKNMLYLQMTSLKTEDTAVYYCTTGYNWHYGIEYWGQGTLVTVSS
VL: DIQMTQSPSSLSASVGDRVTVTCRASQSINSYLNWYQQKPGKAPKLLIYAASSLQSGVPSRFSGSGSGTDFTLTISSLQAEDFATYYCQQSYSTPDTFGQGTKLEIK
binds: all assays above

B14: YB13-221 (antibody, V domains shown)
VH: EVQLVESGGGLVQPGGSLRLSCAASGFIVSSRYMSWVRQAPGKGLEWVSVIYSDGRSYYADSVKGRFIISRDNFKNALYLQMNSLRAEDTAVYYCARDSPYRTGWFLGQSDAFDIWGQGTMVTVSS
VL: DIQMTQSPSTLSASVGDRVTITCRASQSISSWLAWYQQKPGKAPNLLIYKASSLESGVPSRFSASGSGTEFTLTISSLQPDDFATYYCQQYNSYPPSFGQGTKVEIK
not listed: [1]
binds: all other assays above

B15: YB12-266 (antibody, V domains shown)
VH: EVQLVESGGGLIQPGGSLRLSCAASGLTVSSNYMSWVRQAPGKGLEWVSLIYSGGTTSYADSVKGRFTISRDNSKNTLYLQMNSLRVEDTAVYYCARDLVVYGMDVWGQGTTVTVSS
VL: AIQLTQSPSSLSASVGDRVTITCRASQGISSYLAWYQQKPGKAPKLLIYAASTLQSGVPSRFSGSGSGTDFTLTISSLQPEDFATYYCQLLNSYPLTFGGGTKVEIK
not listed: [1]
binds: all other assays above

— article PMC9951844 (Nature Communications, 2023)
